Measurements: patent US20140213531A1 (POLYPHOR, published 2014)
Bridges are numbered along the chain shown (N, C = ends). [ ]: non-standard residue; d: D form. Nle = CCCC[C@H](N)C(=O)O

B1: Example 18 (peptide)
peptide: ICTKSDPPYCR
HELM: PEPTIDE1{I.C.T.K.S.D.P.P.Y.C.R.[dP].P}$PEPTIDE1,PEPTIDE1,2:R3-10:R3|PEPTIDE1,PEPTIDE1,1:R1-13:R2$$$V2.0
SMILES: CC[C@H](C)[C@@H]1NC(=O)[C@@H]2CCCN2C(=O)[C@H]2CCCN2C(=O)[C@H](CCCNC(=N)N)NC(=O)[C@@H]2CSSC[C@H](NC1=O)C(=O)N[C@@H]([C@@H](C)O)C(=O)N[C@@H](CCCCN)C(=O)N[C@@H](CO)C(=O)N[C@@H](CC(=O)O)C(=O)N1CCC[C@H]1C(=O)N1CCC[C@H]1C(=O)N[C@@H](Cc1ccc(O)cc1)C(=O)N2
B2: Example 65 (peptide)
peptide: XCTKSDPPYCY
HELM: PEPTIDE1{[O=C([C@@H](N[*:1])C1CCCCC1)[*:2]].C.T.K.S.D.P.P.Y.C.Y.[dP].P}$PEPTIDE1,PEPTIDE1,2:R3-10:R3|PEPTIDE1,PEPTIDE1,1:R1-13:R2$$$V2.0
SMILES: C[C@@H](O)[C@@H]1NC(=O)[C@@H]2CSSC[C@H](NC(=O)[C@H](Cc3ccc(O)cc3)NC(=O)[C@@H]3CCCN3C(=O)[C@@H]3CCCN3C(=O)[C@H](CC(=O)O)NC(=O)[C@H](CO)NC(=O)[C@H](CCCCN)NC1=O)C(=O)N[C@@H](Cc1ccc(O)cc1)C(=O)N1CCC[C@@H]1C(=O)N1CCC[C@H]1C(=O)N[C@@H](C1CCCCC1)C(=O)N2
B3: Example 17 (peptide)
peptide: ICTKSDPPQCR
HELM: PEPTIDE1{I.C.T.K.S.D.P.P.Q.C.R.[dP].P}$PEPTIDE1,PEPTIDE1,2:R3-10:R3|PEPTIDE1,PEPTIDE1,1:R1-13:R2$$$V2.0
SMILES: CC[C@H](C)[C@@H]1NC(=O)[C@@H]2CCCN2C(=O)[C@H]2CCCN2C(=O)[C@H](CCCNC(=N)N)NC(=O)[C@@H]2CSSC[C@H](NC1=O)C(=O)N[C@@H]([C@@H](C)O)C(=O)N[C@@H](CCCCN)C(=O)N[C@@H](CO)C(=O)N[C@@H](CC(=O)O)C(=O)N1CCC[C@H]1C(=O)N1CCC[C@H]1C(=O)N[C@@H](CCC(N)=O)C(=O)N2
B4: Example 37 (peptide)
peptide: XCTKSDPPICN
HELM: PEPTIDE1{[O=C([C@@H](N[*:1])C1CCCCC1)[*:2]].C.T.K.S.D.P.P.I.C.N.[dP].P}$PEPTIDE1,PEPTIDE1,2:R3-10:R3|PEPTIDE1,PEPTIDE1,1:R1-13:R2$$$V2.0
SMILES: CC[C@H](C)[C@@H]1NC(=O)[C@@H]2CCCN2C(=O)[C@@H]2CCCN2C(=O)[C@H](CC(=O)O)NC(=O)[C@H](CO)NC(=O)[C@H](CCCCN)NC(=O)[C@H]([C@@H](C)O)NC(=O)[C@@H]2CSSC[C@H](NC1=O)C(=O)N[C@@H](CC(N)=O)C(=O)N1CCC[C@@H]1C(=O)N1CCC[C@H]1C(=O)N[C@@H](C1CCCCC1)C(=O)N2
B5: Example 56 (peptide)
peptide: ICTKSDPPYCR
HELM: PEPTIDE1{I.C.T.K.S.D.P.P.Y.C.R.[dP].P}$PEPTIDE1,PEPTIDE1,2:R3-10:R3|PEPTIDE1,PEPTIDE1,1:R1-13:R2$$$V2.0
SMILES: CC[C@H](C)[C@@H]1NC(=O)[C@@H]2CCCN2C(=O)[C@H]2CCCN2C(=O)[C@H](CCCNC(=N)N)NC(=O)[C@@H]2CSSC[C@H](NC1=O)C(=O)N[C@@H]([C@@H](C)O)C(=O)N[C@@H](CCCCN)C(=O)N[C@@H](CO)C(=O)N[C@@H](CC(=O)O)C(=O)N1CCC[C@H]1C(=O)N1CCC[C@H]1C(=O)N[C@@H](Cc1ccc(O)cc1)C(=O)N2
B6: Example 36 (peptide)
peptide: XCTKSDPPICY
HELM: PEPTIDE1{[Cha].C.T.K.S.D.P.P.I.C.Y.[dP].P}$PEPTIDE1,PEPTIDE1,2:R3-10:R3|PEPTIDE1,PEPTIDE1,1:R1-13:R2$$$V2.0
SMILES: CC[C@H](C)[C@@H]1NC(=O)[C@@H]2CCCN2C(=O)[C@@H]2CCCN2C(=O)[C@H](CC(=O)O)NC(=O)[C@H](CO)NC(=O)[C@H](CCCCN)NC(=O)[C@H]([C@@H](C)O)NC(=O)[C@@H]2CSSC[C@H](NC1=O)C(=O)N[C@@H](Cc1ccc(O)cc1)C(=O)N1CCC[C@@H]1C(=O)N1CCC[C@H]1C(=O)N[C@@H](CC1CCCCC1)C(=O)N2
B7: Example 42 (peptide)
peptide: cyclo([Nle]CTKSDPPICT[dP]P)
modifications: disulfide 2-10
B8: Example 59 (peptide)
peptide: ICTXSDPPICR
HELM: PEPTIDE1{I.C.T.[Nle].S.D.P.P.I.C.R.[dP].P}$PEPTIDE1,PEPTIDE1,2:R3-10:R3|PEPTIDE1,PEPTIDE1,1:R1-13:R2$$$V2.0
SMILES: CCCC[C@@H]1NC(=O)[C@H]([C@@H](C)O)NC(=O)[C@@H]2CSSC[C@H](NC(=O)[C@H]([C@@H](C)CC)NC(=O)[C@@H]3CCCN3C(=O)[C@@H]3CCCN3C(=O)[C@H](CC(=O)O)NC(=O)[C@H](CO)NC1=O)C(=O)N[C@@H](CCCNC(=N)N)C(=O)N1CCC[C@@H]1C(=O)N1CCC[C@H]1C(=O)N[C@@H]([C@@H](C)CC)C(=O)N2
B9: Example 22 (peptide)
peptide: ICTXSDPPICR
HELM: PEPTIDE1{I.C.T.[Nle].S.D.P.P.I.C.R.[dP].P}$PEPTIDE1,PEPTIDE1,2:R3-10:R3|PEPTIDE1,PEPTIDE1,1:R1-13:R2$$$V2.0
SMILES: CCCC[C@@H]1NC(=O)[C@H]([C@@H](C)O)NC(=O)[C@@H]2CSSC[C@H](NC(=O)[C@H]([C@@H](C)CC)NC(=O)[C@@H]3CCCN3C(=O)[C@@H]3CCCN3C(=O)[C@H](CC(=O)O)NC(=O)[C@H](CO)NC1=O)C(=O)N[C@@H](CCCNC(=N)N)C(=O)N1CCC[C@@H]1C(=O)N1CCC[C@H]1C(=O)N[C@@H]([C@@H](C)CC)C(=O)N2
B10: Example 55 (peptide)
peptide: ICTKSDPPQCR
HELM: PEPTIDE1{I.C.T.K.S.D.P.P.Q.C.R.[dP].P}$PEPTIDE1,PEPTIDE1,2:R3-10:R3|PEPTIDE1,PEPTIDE1,1:R1-13:R2$$$V2.0
SMILES: CC[C@H](C)[C@@H]1NC(=O)[C@@H]2CCCN2C(=O)[C@H]2CCCN2C(=O)[C@H](CCCNC(=N)N)NC(=O)[C@@H]2CSSC[C@H](NC1=O)C(=O)N[C@@H]([C@@H](C)O)C(=O)N[C@@H](CCCCN)C(=O)N[C@@H](CO)C(=O)N[C@@H](CC(=O)O)C(=O)N1CCC[C@H]1C(=O)N1CCC[C@H]1C(=O)N[C@@H](CCC(N)=O)C(=O)N2

Legend:
Assay in all cases: cell-based or functional assay
[1] = target: T1, CathepsinG, from human neutrophils (human, UniProt P08311 21-244)
T1 sequence (looked up): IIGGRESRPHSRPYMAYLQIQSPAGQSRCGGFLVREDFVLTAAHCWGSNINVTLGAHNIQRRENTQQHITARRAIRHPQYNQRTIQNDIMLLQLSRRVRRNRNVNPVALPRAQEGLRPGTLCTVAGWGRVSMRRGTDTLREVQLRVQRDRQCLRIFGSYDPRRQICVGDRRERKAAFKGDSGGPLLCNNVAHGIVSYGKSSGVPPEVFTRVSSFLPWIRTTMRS

[2] = target: T2, Elastase from human neutrophils (human, UniProt P08246 30-247, limits assumed)
T2 sequence (looked up): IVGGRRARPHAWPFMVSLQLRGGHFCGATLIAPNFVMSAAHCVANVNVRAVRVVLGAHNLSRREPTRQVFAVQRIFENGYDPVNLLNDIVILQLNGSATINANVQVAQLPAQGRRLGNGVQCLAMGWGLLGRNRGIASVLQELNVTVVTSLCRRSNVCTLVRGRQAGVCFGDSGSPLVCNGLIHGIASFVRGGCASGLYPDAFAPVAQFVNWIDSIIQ

[3] = target: Trypsin, Iodination grade, from human pancreas (human, UniProt P07477 24-247)
[4] = target: Chymotrypsin, from human pancreas (human, UniProt P17538 19-263)
Chymase, from human skin = target: T3, Chymase, from human skin (human, UniProt P23946 22-247)
T3 sequence (looked up): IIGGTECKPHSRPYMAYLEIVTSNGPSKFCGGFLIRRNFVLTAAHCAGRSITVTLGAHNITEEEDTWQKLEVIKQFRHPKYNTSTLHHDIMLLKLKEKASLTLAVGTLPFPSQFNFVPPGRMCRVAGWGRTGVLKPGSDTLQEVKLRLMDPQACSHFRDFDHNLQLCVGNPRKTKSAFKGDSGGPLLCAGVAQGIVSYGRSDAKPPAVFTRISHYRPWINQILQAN

[5] = target: Thrombin, from Human Plasma, high activity (human, UniProt P00734 328-622)
[6] = target: Tryptase, from human lung (human, UniProt Q15661 31-275, limits assumed)
[7] = target: Urokinase from human urine (human, UniProt P00749 21-431, limits assumed)

Chymotrypsin, from human pancreas, sequence (P17538 19-263): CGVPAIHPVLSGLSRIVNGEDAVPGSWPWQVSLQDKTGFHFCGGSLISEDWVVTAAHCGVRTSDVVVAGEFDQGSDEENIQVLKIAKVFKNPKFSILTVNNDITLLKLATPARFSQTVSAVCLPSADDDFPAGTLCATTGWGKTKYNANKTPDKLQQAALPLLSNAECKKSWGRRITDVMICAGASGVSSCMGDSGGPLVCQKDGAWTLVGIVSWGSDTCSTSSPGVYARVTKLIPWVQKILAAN
Tryptase, from human lung, sequence (Q15661 31-275 limits assumed): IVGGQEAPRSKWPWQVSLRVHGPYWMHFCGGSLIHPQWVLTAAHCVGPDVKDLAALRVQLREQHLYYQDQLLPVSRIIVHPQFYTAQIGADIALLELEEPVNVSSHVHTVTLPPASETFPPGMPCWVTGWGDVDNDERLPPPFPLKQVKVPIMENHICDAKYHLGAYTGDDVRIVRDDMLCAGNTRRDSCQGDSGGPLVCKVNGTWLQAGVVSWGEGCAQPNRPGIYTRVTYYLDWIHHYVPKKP

Binder | IC50 [1] [nmol] | IC50 [2] [nmol] | % inhibition at 100 µM [3] [%] | % inhibition at 100 µM [4] [%] | % inhibition at 100 µM (Chymase, from human skin) [%] | % inhibition at 100 µM [5] [%] | % inhibition at 100 µM [6] [%] | % inhibition at 100 µM [7] [%]
B1 | 47 | > 100000 | 84 | 25 | 32.5 | 0 | 88.3 | 
B2 | 47 |  |  |  |  |  | 57 | 1
B3 | 55 | > 100000 | 90 | 16 | 27.6 | 0 | 90.4 | 
B4 | 35 |  |  |  |  |  | 56 | 5
B5 | 47 | > 100000 | 84 | 25 | 32.5 | 0 | 88.3 | 
B6 | 41 |  |  |  |  |  | 73.3 | 0
B7 | 46 |  |  |  |  |  | 0 | 7
B8 | 55 | > 100000 | 84 | 0 | 98.8 |  | 3.8 | 5.7
B9 | 55 | > 100000 | 84 | 0 | 98.8 |  | 3.8 | 5.7
B10 | 55 | > 100000 | 90 | 16 | 27.6 |  | 90.4 | 
